Experimental data published in paper PMC12199398, “Manipulating the Light Systemic Signal HY5 Greatly Improve Fruit Quality in Tomato”.

T1: HY5 (His-HY5) (Solanum lycopersicum (tomato), UniProt Q9SM50 1-158)
T1 sequence: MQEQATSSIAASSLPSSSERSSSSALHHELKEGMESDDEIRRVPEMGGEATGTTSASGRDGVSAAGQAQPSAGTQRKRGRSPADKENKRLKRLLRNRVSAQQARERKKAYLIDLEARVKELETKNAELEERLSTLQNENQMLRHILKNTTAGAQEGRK

B1: LIN5 ACE probe (dsDNA)
DNA 1: GTAAATTATTACGTCAGGCTTTAT
DNA 2: ATAAAGCCTGACGTAATAATTTAC
B2: PSY1 Z-box probe (dsDNA)
DNA 1: GAAATCTACGTGTCTTAA
DNA 2: TTAAGACACGTAGATTTC
B3: SS1 ACE probe (dsDNA)
DNA 1: CACCCTTTAGACGTATTACAGTAG
DNA 2: CTACTGTAATACGTCTAAAGGGTG
B4: PDS C/G-box probe (dsDNA)
DNA 1: TGGTGGGACGTGTCAAATT
DNA 2: AATTTGACACGTCCCACCA
B5: LIN6 A-box probe (dsDNA)
DNA 1: CGCAATTAAATACGTAAGGGCTTTGA
DNA 2: TCAAAGCCCTTACGTATTTAATTGCG
B6: VI ACE probe (dsDNA)
DNA 1: AAGAAAAAAAATGACGTTTTTCCCCTTATT
DNA 2: AATAAGGGGAAAAACGTCATTTTTTTTCTT
B7: SS7 A-box probe (dsDNA)
DNA 1: GCCCGGTGTCTACGTAAGATTGACAG
DNA 2: CTGTCAATCTTACGTAGACACCGGGC

Target: T1, HY5 (His-HY5)
Assay: EMSA; LightShift Chemiluminescent EMSA Kit (Thermo 20148); buffer, salt, pH and temperature not stated
Settings: protein: recombinant; tags: His (pET-32a); chain copies: 2; blunt

Binding result, binds:
B1
B2
B3
B4
B5
B6
B7
